According to paper PMC7865317, “Coupling of a Novel TIMP3 Peptide to Carboxypeptidase G2 for Pro-Drug Activation at the Tumour Site” (Molecules, 2021):

Biological target: T1, VEGFR2-immunoglobulin Fc fusion protein (UniProt P35968 20-764)
T1 construct: VEGFR2 (vascular endothelial growth factor receptor 2); Probably the extracellular domain of VEGFR2 fused to an IgG Fc, as sold by R&D Systems (surmise); also called VEGFR2-Fc; source: bought: R&D Systems
Experiment: BLI; BLItz system; VEGFR2-Fc (5 uL at 250 ug/mL) loaded on protein A-coated probes for 300 s; CPG2 or CPG2-p700 in the drop holder, five runs at 600 nM to 10 uM; PBS
Details: both partners purified

T1 sequence (P35968 20-764): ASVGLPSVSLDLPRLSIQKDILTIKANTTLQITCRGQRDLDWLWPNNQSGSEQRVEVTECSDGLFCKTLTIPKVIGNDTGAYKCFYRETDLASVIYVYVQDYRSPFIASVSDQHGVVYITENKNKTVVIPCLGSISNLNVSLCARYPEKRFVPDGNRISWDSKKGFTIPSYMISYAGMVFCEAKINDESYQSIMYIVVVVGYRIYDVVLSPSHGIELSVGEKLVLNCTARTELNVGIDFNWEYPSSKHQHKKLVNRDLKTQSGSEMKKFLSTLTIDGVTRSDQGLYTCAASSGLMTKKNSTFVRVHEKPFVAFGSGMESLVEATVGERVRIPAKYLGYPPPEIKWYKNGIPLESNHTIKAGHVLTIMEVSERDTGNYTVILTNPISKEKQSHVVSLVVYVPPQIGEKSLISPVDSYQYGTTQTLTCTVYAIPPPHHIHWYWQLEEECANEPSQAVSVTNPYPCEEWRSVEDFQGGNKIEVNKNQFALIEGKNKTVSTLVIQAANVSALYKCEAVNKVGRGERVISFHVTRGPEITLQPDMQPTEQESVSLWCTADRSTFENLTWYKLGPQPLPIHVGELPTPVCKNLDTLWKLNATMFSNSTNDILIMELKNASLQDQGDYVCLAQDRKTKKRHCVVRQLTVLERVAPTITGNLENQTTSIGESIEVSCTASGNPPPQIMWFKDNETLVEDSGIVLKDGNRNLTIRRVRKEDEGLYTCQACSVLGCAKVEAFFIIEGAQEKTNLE

B1: recombinant codon-optimised carboxypeptidase G2 (CPG2-His) (enzyme, Pseudomonas aeruginosa strain RS-16, UniProt P06621 23-415, looked up)
chain: ALAQKRDNVLFQAATDEQPAVIKTLEKLVNIETGTGDAEGIAAAGNFLEAELKNLGFTVTRSKSAGLVVGDNIVGKIKGRGGKNLLLMSHMDTVYLKGILAKAPFRVEGDKAYGPGIADDKGGNAVILHTLKLLKEYGVRDYGTITVLFNTDEEKGSFGSRDLIQEEAKLADYVLSFEPTSAGDEKLSLGTSGIAYVQVNITGKASHAGAAPELGVNALVEASDLVLRTMNIDDKAKNLRFNWTIAKAGNVSNIIPASATLNADVRYARNEDFDAAMKTLEERAQQKKLPEADVKVIVTRGRPAFNAGEGGKKLVDKAVAYYKEAGGTLGVEERTGGGTDAAYAALSGKPVIESLGLPGFGYHSDKAEYVDISAIPRRLYMAARLIMDLGAGK
notes: carboxypeptidase G2 (CPG2, glucarpidase), gene codon optimised for E. coli (Goda et al. 2009), approximately 1200 bp; Expected size 45 kDa; Cloned NdeI/NotI into pET28a, which may add an N-terminal His tag from the vector (surmise); construct in Supplementary Data S1; also called CPG2 alone; CPG2-only; source: E. coli BL21 (DE3), purified by Ni2+-NTA chromatography from pooled 2 M urea washes of …
Kd: 15 µM
